In publication doi:10.1101/2023.08.11.552966 (bioRxiv, 2023):
Numbering of substitutions follows the chain as printed. Numbers in names are those of the source.

Legend:
RAD51 WT = RAD51 WT (Homo sapiens, UniProt Q06609 1-339); test: BLI
cross-linking = target: the molecule itself; test: cross-linking

Binder: TCCTTTTGATAAGAGGTCATTTTTGCGGATGGC (ssDNA) [33m DNA]
- Kd (RAD51 WT): 3.84 µM

B1: His-tagged RAD51 S97A (non phosphorylable mutant) (natural protein)
chain: MAMQMQLEANADTSVEEESFGPQPISRLEQCGINANDVKKLEEAGFHTVEAVAYAPKKELINIKGISEAKADKILAEAAKLVPMGFTTATEFHQRRAEIIQITTGSKELDKLLQGGIETGSITEMFGEFRTGKTQICHTLAVTCQLPIDRGGGEGKAMYIDTEGTFRPERLLAVAERYGLSGSDVLDNVAYARAFNTDHQTQLLYQASAMMVESRYALLIVDSATALYRTDYSGRGELSARQMHLARFLRMLLRLADEFGVAVVITNQVVAQVDGAAMFAADPKKPIGGNIIAHASTTRLYLRKGRGETRICKIYDSPCLPEAEAMFAINADGVGDAKD
- binding result (cross-linking): binds

B2: His-tagged RAD51 S97D (phosphomimetic mutant) (natural protein)
chain: B1 chain with A97D
- binding result (cross-linking): binds

Binder: GCCAUCCGCAAAAAUGACCUCUUAUCAAAAGGA (ssRNA) [33m RNA]
- Kd (RAD51 WT): 0.53 µM
